B1: 2c7pan8 (peptide, not shown: large carriers)
chain: GDPNSSTSPR
B2: 2c7pan9 (peptide, not shown: large carriers)
chain: GDPNSASGTA
B3: 2c7pan14 (peptide, not shown: large carriers)
chain: GDPNSRGKSREYLS
B4: 2c7pan26 (peptide, not shown: large carriers)
chain: GDPRTHR
B5: 2c7pan42 (peptide, not shown: large carriers)
chain: GDPNSSSVDKLGYWRVTESSNE

target: anti-Der p 1 monoclonal antibody 2C7; assay: T7-DELFIA, comparison phage on 2C7-coated wells, time resolved fluorometry

Molecule	TRF [TRF]
T7wt	500

target: anti-Der p 1 monoclonal antibody 2C7; assay: T7-DELFIA, 50 µl phage lysate on 2C7-coated wells, time resolved fluorometry

Molecule	TRF [TRF]
B1	1900
B2	17000
B3	1800
B4	8500
B5	64000

Source: patent US20070031832A1
